Data reported in patent US8703915B2, “Mutant proteins and methods for producing them” (Heptares Therapeutics Limited, priority 2009, dated 2014).
Changes are numbered by the printed parent chain. Numbers in names are those of the source.

B1: M4: parent human M4 muscarinic receptor (protein, UniProt P08173 1-479, looked up)
Muscarinic acetylcholine …: MANFTPVNGSSGNQSVRLVTSSSHNRYETVEMVFIATVTGSLSLVTVVGNILVMLSIKVNRQLQTVNNYFLFSLACADLIIGAFSMNLYTVYIIKGYWPLGAVVCDLWLALDYVVSNASVMNLLIISFDRYFCVTKPLTYPARRTTKMAGLMIAAAWVLSFVLWAPAILFWQFVVGKRTVPDNQCFIQFLSNPAVTFGTAIAAFYLPVVIMTVLYIHISLASRSRVHKHRPEGPKEKKAKTLAFLKSPLMKQSVKKPPPGEAAREELRNGKLEEAPPPALPPPPRPVADKDTSNESSSGSATQNTKERPATELSTTEATTPAMPAPPLQPRALNPASRWSKIQIVTKQTGNECVTAIEIVPATPAGMRPAANVARKFASIARNQVRKKRQMAARERKVTRTIFAILLAFILTWTPYNVMVLVNTFCQSCIPDTVWSIGYWLCYVNSTINPACYALCNATFKKTFRHLLLCQYRNIGTAR
B2: 1363: 5HT2C receptor mutant, residue 7.48 to alanine (protein, listed as Homo sapiens)
chain: MVNLRNAVHSFLVHLIGLLVWQCDISVSPVAAIVTDIFNTSDGGRFKFPDGVQNWPALSIVIIIIMTIGGNILVIMAVSMEKKLHNATNYFLMSLAIADMLVGLLVMPLSLLAILYDYVWPLPRYLCPVWISLDVLFSTASIMHLCAISLDRYVAIRNPIEHSRFNSRTKAIMKIAIVWAISIGVSVPIPVIGLRDEEKVFVNNTTCVLNDPNFVLIGSFVAFFIPLTIMVITYCLTIYVLRRQALMLLHGHTEEPPGLSLDFLKCCKRNTAEEENSANPNQDQNARRRKKKERRPRGTMQAINNERKASKVLGIVFFVFLIMWCPFFITNILSVLCEKSCNQKLMEKLLNVFVWIGYVCSGANPLVYTLFNKIYRRAFSNYLRCNYKVEKKPPVRQIPRVAATALSGRELNVNIYRHTNEPVIEKASDNEPGIEMQVENLELPVNPSSVVSERISSV
B3: 5HT2C: wild type (parent) human 5HT2C receptor (protein, listed as Homo sapiens)
chain: B2 chain with A363I
B4: M93A: 5HT2C receptor mutant, M93 to alanine (protein, UniProt P28335 33-458, looked up, variant M93A)
5-hydroxytryptamine receptor …: IVTDIFNTSDGGRFKFPDGVQNWPALSIVIIIIMTIGGNILVIMAVSMEKKLHNATNYFLASLAIADMLVGLLVMPLSLLAILYDYVWPLPRYLCPVWISLDVLFSTASIMHLCAISLDRYVAIRNPIEHSRFNSRTKAIMKIAIVWAISIGVSVPIPVIGLRDEEKVFVNNTTCVLNDPNFVLIGSFVAFFIPLTIMVITYCLTIYVLRRQALMLLHGHTEEPPGLSLDFLKCCKRNTAEEENSANPNQDQNARRRKKKERRPRGTMQAINNERKASKVLGIVFFVFLIMWCPFFITNILSVLCEKSCNQKLMEKLLNVFVWIGYVCSGINPLVYTLFNKIYRRAFSNYLRCNYKVEKKPPVRQIPRVAATALSGRELNVNIYRHTNEPVIEKASDNEPGIEMQVENLELPVNPSSVVSERISSV
B5: L366: 5HT2C receptor mutant, residue 7.51 (L366, L in NPLVY) to alanine (protein, UniProt P28335 33-458, looked up, variant L366A)
5-hydroxytryptamine receptor …: B4 5-hydroxytryptamine receptor … with A61M, L334A

Tests used:
M4 muscarinic receptor = assay: Thermostability of M4 muscarinic receptor bound to antagonist NMS; assay type: physicochemical, human; settings: bound to antagonist NMS
Experimental: In order to stabilise the M4 muscarinic receptors in antagonist conformation, a systematic alanine-scan was performed to identify mutations that stabilise receptors bound to the muscarinic antagonist, NMS. […] However, L71A (three residues N-terminal of the L2.46) was identified as a stabilising mutation. This mutation increases the Tm of this receptor by about 2° C. (FIG. 8a).
(§1) A2AR-(2-316) expression was carried out by using the pRG/III-hs-MBP E. coli expression vector and DH5α cells. Cells were grown at 37° C. in 2 L flasks containing 500 mL of 2×TY medium supplemented with Ampicillin (100 μg/mL) and glucose (0.2% w/v). At OD600≈0.7, IPTG and theophylline were added at final concentrations respectively of 0.5 mM and 100 μM, and the temperature was reduced to 20° C. After 22 to 24 hours, cells were harvested in aliquots of 14 mL, centrifuged for 30 min and stored at −20° C. Both 5HT2C and M4 receptors were transiently expressed in HEK293T cells using GeneJuice transfection reagent used according to the manufacturers guidelines.
Transiently transfected mammalian cells expressing M4 were harvested about 40 hours post transfection and the receptors were solubilised in 50 mM Tris pH 7.5/250 mM NaCl/1% DDM/EDTA free protease inhibitor mix for 1 hour rotating at 4° C. The solubilised lysate was then cleared by centrifugation at 13000 rpm for 15 minutes at 4° C. The solubilised receptors were then purified on Ni-NTA beads and eluted with 100 mM histidine. The eluted receptor was used in radioligand binding assay. Thermostability of M4 was measured using 25 μL of purified receptor mixed with 95 μL of 12 nM [^3H]-NMS (final concentration of 10 nM). The sample was incubated for 60 min at 4° C., then 30 min at the specified temperature and then 30 min at 4° C. Receptor bound and free radioligand were separated using a 96-well plate gel filtration assay.

5HT2C receptor [1] = assay: Two point thermostability assay, SCH23390 agonist binding to 5HT2C alanine scan mutants; assay type: physicochemical, human
Experimental: An alanine scan has been carried out on the 5HT2C receptor in the presence of the agonist SCH23390 in order to stabilise the agonist conformation.
(§2) 5HT2C receptor was solubilised from transiently transfected mammalian cells about 40 hours post transfection, in 50 mM Hepes pH7.4/100 mM KCl/0.5% DDM/(0.1% CHS/0.6% CHAPS was added to cells for SCH23390 agonist assay) and protease inhibitor. Cell lysates were left at 4° C. on a rotator and then cleared by centrifugation at 13,200 rpm for 20 minutes at 4° C. Thermostability analysis was performed directly on the soluble lysate. The Tm was determined by incubating 108 μl of the lysate with [N^6-methyl-^3H]Mesulergine radioligand at a final concentration of 17 nM or 9 nM [^3H]SCH23390 for one hour at 4° C. The six ligand incubations are then incubated at six different temperatures from 25° C. to 55° C., for thirty minutes. Receptor bound and free radioligand were separated using G25 Sephadex spin columns.

5HT2C receptor [2] = assay: Thermostability of 5HT2C receptor bound to agonist SCH23390; assay type: physicochemical, human; settings: for Tm: bound to agonist SCH23390; for increase of Tm: agonist SCH23390 bound, versus parent 5HT2C
Experimental: An alanine scan has been carried out on the 5HT2C receptor in the presence of the agonist SCH23390 in order to stabilise the agonist conformation. Similar to A2A, it appears that mutating L2.46 (L95 in 5HT2C) to alanine confers significant stability on this receptor increasing the Tm of the receptor by 5.4° C. (FIG. 7). It is notable that in addition to L95, mutating the nearby M93 (two residues away from L2.46) to alanine also confers stability to the agonist bound receptor, resulting in an increase of 2.9° C.
as §1
(§3) 5HT2C receptor was solubilised from transiently transfected mammalian cells in 50 mM Hepes pH7.4, 100 mM KCl, 0.5% DDM (0.1% CHS/0.6% CHAPS was added to cells for SCH23390 agonist assay). Tm analysis was performed directly on the soluble lysate. The Tm was determined by incubating 108 μl of the lysate with [N^6-methyl-^3H]Mesulergine radioligand at a final concentration of 17 nM or 9 nM [^3H]SCH23390 for one hour at 4° C. The six ligand incubations are then incubated at six different temperatures from 25° C. to 55° C., for thirty minutes. Receptor bound and free radioligand were separated using a 96-well plate gel filtration assay.
as §2

5HT2C receptor [3] = assay: Thermostability of 5HT2C receptor bound to antagonist mesulergine; assay type: physicochemical, human; settings: bound to antagonist (mesulergine)
Experimental: as §1, §3

5HT2C receptor [4] = assay: Antagonist binding to 5HT2C NPxxY motif alanine mutants (Table 1); parameters: species or system human; Average / Average - BG: unit not given here; settings: for % of Wildtype binding / DPM1 / DPM2: antagonist Mesulergine binding; for DPM1: replicate 1; for DPM2: replicate 2; for Average - BG: average minus background; for Average: average of DPM1 and DPM2
Experimental: An alanine scan was carried out in a similar fashion on an adenosine A2A receptor along with the 5HT2C receptor in the presence of the antagonist Mesulergine. Both alanine scans were carried out in order to further stabilize the antagonist conformation. […] The motif in Adenosine A2A is NPFIY (SEQ ID NO: 364) and for the 5HT2C is NPLVY (SEQ ID NO: 363). Therefore mutations in this region of the receptor contain stabilising mutations specific to the agonist conformation and detrimentally effect antagonist binding.
as §2

Molecule	Tm (M4 muscarinic receptor) [°C]	thermostability (agonist binding at the destabilising temperature compared to wild type) (5HT2C receptor [1])	Tm (5HT2C receptor [2]) [°C]	Tm (5HT2C receptor [3]) [°C]	% of Wildtype binding (5HT2C receptor [4]) [%]	DPM1 (5HT2C receptor [4]) [DPM]	DPM2 (5HT2C receptor [4]) [DPM]	Average - BG (5HT2C receptor [4])	Average (5HT2C receptor [4])	increase of Tm (5HT2C receptor [2]) [°C]
B1	34.0									
B2		increased agonist binding compared to the wild type receptor								
B3			43.35	37.1	100	10202	9631	9208	9916.5	
B4			45.6							2.9
B5		increased agonist binding compared to the wild type receptor			19.27	2515	1897	1774.5	2206	4
